In article doi:10.1101/2025.08.25.672131:
Blank lines part the entries; values can stand above or below the substance they belong to.

Experiments:
[1] = target: CREB-bZIP (bZIP domain of human CREB1, residues 277-339 of CREB-A) (human); test: stopped-flow intrinsic tyrosine fluorescence, urea refolding kinetics
CREB-bZIP-L318V (human) [2] = test: other fluorescence titration
CREB-bZIP-L318V (human) [3] = test: stopped-flow fluorescence out-competition
CREB-bZIP-L332V (human) = test: other fluorescence titration

Kd [1]: 5.7 nM
koff [1]: 0.029 s⁻¹
kon [1]: 1e+07 M⁻¹ s⁻¹
Substance: CREB-bZIP (bZIP domain of human CREB1, residues 277-339 of CREB-A) (domain or fragment)

fold increase of Kd,M-M against CREB-bZIP (CREB-bZIP-L318V (human) [2]): 1000 fold
k+,M-M.CRE (association of a monomer with CRE-bound monomer, inferred) (CREB-bZIP-L318V (human) [3]): 5e+09 M⁻¹ s⁻¹
k-,M-M.CRE (dissociation of a monomer from the CRE-bound dimer) (CREB-bZIP-L318V (human) [3]): 0.079 s⁻¹
Substance: CREB-bZIP-L318V (domain or fragment)

fold increase of Kd,M-M against CREB-bZIP (CREB-bZIP-L332V (human)): 100 fold
Substance: CREB-bZIP-L332V (domain or fragment)
